Publication PMC5062973 (Nucleic Acids Research, 2016)

B1: M. jannaschii fibrillarin with a N-terminal FLAG-tag (enzyme, UniProt Q58108 1-230, looked up)
chain: MEDIKIKEIFENIYEVDLGDGLKRIATKSIVKGKKVYDEKIIKIGDEEYRIWNPNKSKLAAAIIKGLKVMPIKRDSKILYLGASAGTTPSHVADIADKGIVYAIEYAPRIMRELLDACAERENIIPILGDANKPQEYANIVEKVDVIYEDVAQPNQAEILIKNAKWFLKKGGYGMIAIKARSIDVTKDPKEIFKEQKEILEAGGFKIVDEVDIEPFEKDHVMFVGIWEGK
B2: M. jannaschii L7Ae (natural protein)
chain: not shown

Target: T1, M. jannaschii Nop5 (amino acids 1-367) (M. jannaschii, UniProt Q58105 1-367)
T1 sequence (looked up): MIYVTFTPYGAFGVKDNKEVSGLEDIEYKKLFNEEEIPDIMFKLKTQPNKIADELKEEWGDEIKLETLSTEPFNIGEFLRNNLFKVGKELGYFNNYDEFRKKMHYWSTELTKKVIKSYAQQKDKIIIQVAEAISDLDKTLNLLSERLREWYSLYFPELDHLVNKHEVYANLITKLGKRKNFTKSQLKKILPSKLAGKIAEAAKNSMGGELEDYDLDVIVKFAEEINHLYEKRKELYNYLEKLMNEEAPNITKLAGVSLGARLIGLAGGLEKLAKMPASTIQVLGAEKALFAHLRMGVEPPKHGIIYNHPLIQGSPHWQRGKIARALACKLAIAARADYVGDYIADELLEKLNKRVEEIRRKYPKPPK
Assay: SEC

| Binder | binding result |
| --- | --- |
| B1 | binds |
| B2 | binds |
